Reference: PMC8440396 (Nature cell biology, 2021)

T1: Flag-TRIM15 (human, UniProt Q9C019 1-465)
T1 sequence: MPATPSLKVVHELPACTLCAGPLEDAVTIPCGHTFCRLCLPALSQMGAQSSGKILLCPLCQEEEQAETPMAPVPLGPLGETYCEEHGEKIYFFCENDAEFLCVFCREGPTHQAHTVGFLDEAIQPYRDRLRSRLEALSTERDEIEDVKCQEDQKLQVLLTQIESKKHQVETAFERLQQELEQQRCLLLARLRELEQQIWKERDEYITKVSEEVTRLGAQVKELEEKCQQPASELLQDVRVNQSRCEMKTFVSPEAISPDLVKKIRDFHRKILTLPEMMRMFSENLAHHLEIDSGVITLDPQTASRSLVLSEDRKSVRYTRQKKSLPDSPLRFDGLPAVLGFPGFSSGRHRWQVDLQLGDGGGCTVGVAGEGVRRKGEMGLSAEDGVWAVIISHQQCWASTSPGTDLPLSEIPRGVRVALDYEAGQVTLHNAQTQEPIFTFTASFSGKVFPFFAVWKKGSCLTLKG

T2: Flag-CYLD (human, UniProt Q9NQC7 1-956)
T2 sequence: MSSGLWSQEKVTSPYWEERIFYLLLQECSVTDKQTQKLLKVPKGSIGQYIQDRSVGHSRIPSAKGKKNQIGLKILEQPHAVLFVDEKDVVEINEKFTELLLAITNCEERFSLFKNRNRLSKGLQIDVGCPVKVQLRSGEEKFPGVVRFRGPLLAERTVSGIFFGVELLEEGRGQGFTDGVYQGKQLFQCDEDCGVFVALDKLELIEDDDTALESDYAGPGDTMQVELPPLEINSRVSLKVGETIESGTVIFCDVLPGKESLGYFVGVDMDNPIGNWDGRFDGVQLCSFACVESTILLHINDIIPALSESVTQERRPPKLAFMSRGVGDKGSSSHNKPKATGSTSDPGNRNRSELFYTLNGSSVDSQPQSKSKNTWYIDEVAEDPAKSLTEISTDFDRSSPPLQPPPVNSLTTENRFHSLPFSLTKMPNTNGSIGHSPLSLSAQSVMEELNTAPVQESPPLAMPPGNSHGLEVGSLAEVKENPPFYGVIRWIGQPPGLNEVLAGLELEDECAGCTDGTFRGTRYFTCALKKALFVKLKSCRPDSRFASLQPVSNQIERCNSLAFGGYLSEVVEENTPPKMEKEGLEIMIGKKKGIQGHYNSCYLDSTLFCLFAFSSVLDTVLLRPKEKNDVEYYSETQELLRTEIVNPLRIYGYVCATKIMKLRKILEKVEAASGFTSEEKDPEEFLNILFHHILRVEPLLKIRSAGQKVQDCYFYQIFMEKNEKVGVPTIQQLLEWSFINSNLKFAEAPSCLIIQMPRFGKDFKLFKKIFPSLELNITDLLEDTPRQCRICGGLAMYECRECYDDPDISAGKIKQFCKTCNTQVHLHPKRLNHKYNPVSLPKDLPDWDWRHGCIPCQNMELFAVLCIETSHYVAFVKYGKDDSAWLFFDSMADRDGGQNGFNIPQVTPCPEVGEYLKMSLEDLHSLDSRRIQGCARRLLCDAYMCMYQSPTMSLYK

T3: Flag-CYLD^4A (K767A/K768A/L773A/L775A) (human, UniProt Q9NQC7 1-956, K767A | K768A | L773A | L775A)
T3 sequence: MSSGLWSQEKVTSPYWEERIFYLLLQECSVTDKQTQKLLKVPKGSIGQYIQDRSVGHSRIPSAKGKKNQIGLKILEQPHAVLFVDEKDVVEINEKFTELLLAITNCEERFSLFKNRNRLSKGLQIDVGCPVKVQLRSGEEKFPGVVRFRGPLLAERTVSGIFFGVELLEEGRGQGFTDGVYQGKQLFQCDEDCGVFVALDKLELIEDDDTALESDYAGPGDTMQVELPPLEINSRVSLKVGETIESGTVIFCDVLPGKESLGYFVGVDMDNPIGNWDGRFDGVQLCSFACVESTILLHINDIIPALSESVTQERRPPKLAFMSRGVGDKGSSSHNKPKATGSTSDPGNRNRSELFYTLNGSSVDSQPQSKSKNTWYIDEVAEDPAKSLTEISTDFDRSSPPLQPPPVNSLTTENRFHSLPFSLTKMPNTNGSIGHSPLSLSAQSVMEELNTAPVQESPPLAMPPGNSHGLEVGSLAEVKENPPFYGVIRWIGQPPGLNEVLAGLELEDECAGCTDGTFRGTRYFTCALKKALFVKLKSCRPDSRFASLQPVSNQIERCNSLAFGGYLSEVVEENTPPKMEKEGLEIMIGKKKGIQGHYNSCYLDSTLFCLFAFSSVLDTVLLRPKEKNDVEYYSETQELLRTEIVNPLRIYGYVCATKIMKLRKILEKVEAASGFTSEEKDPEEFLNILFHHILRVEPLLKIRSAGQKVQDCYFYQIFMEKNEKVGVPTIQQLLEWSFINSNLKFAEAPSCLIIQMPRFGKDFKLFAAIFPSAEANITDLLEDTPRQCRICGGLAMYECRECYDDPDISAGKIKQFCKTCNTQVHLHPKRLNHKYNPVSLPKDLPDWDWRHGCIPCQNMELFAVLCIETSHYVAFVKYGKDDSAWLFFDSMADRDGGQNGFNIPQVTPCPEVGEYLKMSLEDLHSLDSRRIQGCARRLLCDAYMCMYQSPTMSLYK


Columns and labels:
Test in all cases: pull-down
[1] = biological target: Flag-ERK1 (human, UniProt P27361 1-379)
[2] = biological target: Flag-ERK1^K302R (human, UniProt P27361 1-379, K302R)
[3] = biological target: T1, Flag-TRIM15
[4] = biological target: T2, Flag-CYLD
[5] = biological target: T3, Flag-CYLD^4A (K767A/K768A/L773A/L775A)

binding result [1] | binding result [2] | binding result [3] | binding result [4] | binding result [5] | Binder
binds | binds | – | – | – | GST-ELK-1 (aa 307-428) (domain or fragment) ISQPQKGRKPRDLELPLSPSLLGGPGPERTPGSGSGSGLQAPGPALTPSLLPTHTLTPVLLTPSSLPPSIHFWSTLSPIAPRSPAKLSFQFPSSGSAQVHIPSISVDGLSTPVVLSPGPQKP
– | – | binds | binds | binds | GST-ERK1 (enzyme) MAAAAAQGGGGGEPRRTEGVGPGVPGEVEMVKGQPFDVGPRYTQLQYIGEGAYGMVSSAYDHVRKTRVAIKKISPFEHQTYCQRTLREIQILLRFRHENVIGIRDILRASTLEAMRDVYIVQDLMETDLYKLLKSQQLSNDHICYFLYQILRGLKYIHSANVLHRDLKPSNLLINTTCDLKICDFGLARIADPEHDHTGFLTEYVATRWYRAPEIMLNSKGYTKSIDIWSVGCILAEMLSNRPIFPGKHYLDQLNHILGILGSPSQEDLNCIINMKARNYLQSLPSKTKVAWAKLFPKSDSKALDLLDRMLTFNPNKRITVEEALAHPYLEQYYDPTDEPVAEEPFTFAMELDDLPKERLKELIFQETARFQPGVLEAP
